Experimental data: article PMC3814767, “Target Specificity of the E3 Ligase LUBAC for Ubiquitin and NEMO Relies on Different Minimal Requirements* ^([image sbox.jpg])” (The Journal of Biological Chemistry, 2013)

Biological target: T1, N-terminal TAMRA-labeled ubiquitin (wild type) (UniProt P0CG48 1-76, TAMRA (5-carboxytetramethylrhodamine) label on the N-terminus)
T1 construct: also called ^TAMRAubiquitin; ^TAMRAUb; source: chemically synthesized (according to El Oualid et al.), purified over Resource S and gel filtration (Superdex 75)
Test: fluorescence polarisation; TAMRA-ubiquitin 1 nM, HOIP^LDD in 1:1 serial dilutions, three repeats; 20 mM Hepes pH 7.5, 150 mM NaCl, 5 mM βME, 1 g/liter chicken ovalbumin; fit to a 1:1 non-linear binding model
Settings: both partners purified

Kd: 160 ± 40 µM
B1: HOIP linear ubiquitin chain determining domain (LDD) (domain or fragment, UniProt Q96EP0 910-1072, looked up)
chain: KCPEPNCRVKKSLHGHHPRDCLFYLRDWTALRLQKLLQDNNVMFNTEPPAGARAVPGGGCRVIEQKEVPNGLRDEACGKETPAGYAGLCQAHYKEYLVSLINAHSLDPATLYEVEELETATERYLHVRPQPLAGEDPPAYQARLLQKLTEEVPLGQSIPRRRK
notes: HOIP (RNF31), the C-terminal linear ubiquitin chain determining domain (LDD); also called HOIP^LDD; HOIP LDD domain
